From patent US20230331835A1

Biological target: antigens on human iPSC-derived brain microvascular endothelial cells (BMECs) (human)
Assay: flow cytometry of BMECs with phage, anti-M13 detection

“phage displaying anti-botulinum neurotoxin scFv” was tested, and the geometric mean (fluorescence) was 3.16.
